Residue numbers refer to the chain shown, from its start.
T1: human CD151 protein (human, UniProt P48509 1-253)
T1 construct: whole, on cells; in HT-29 cell lysate in the Western blots; also called PETA-3; SFA-1
T1 sequence (looked up): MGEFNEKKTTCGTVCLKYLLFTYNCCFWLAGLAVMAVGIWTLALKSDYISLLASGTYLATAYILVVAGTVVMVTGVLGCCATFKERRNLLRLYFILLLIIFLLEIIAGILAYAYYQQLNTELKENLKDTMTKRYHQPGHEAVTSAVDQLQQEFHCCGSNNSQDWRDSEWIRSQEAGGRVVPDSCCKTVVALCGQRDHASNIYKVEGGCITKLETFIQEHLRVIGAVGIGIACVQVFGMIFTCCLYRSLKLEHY

T2: recombinant extracellular loop EC2 of human CD151 (amino acids 130 to 221, C-terminal Poly-His tail) (human, UniProt P48509 130-221)
T2 construct: range 130-221; Expressed in soluble form in the periplasm of E. coli from pET22b and purified by IMAC; also called recombinant EC2; recombinant EC2 loop; not shown: Poly-His tail at the C-terminal position
T2 sequence (looked up): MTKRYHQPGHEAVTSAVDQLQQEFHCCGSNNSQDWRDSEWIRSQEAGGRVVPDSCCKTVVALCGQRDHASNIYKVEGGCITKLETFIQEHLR

B1: murine monoclonal antibody 205H8 (hybridoma CNCM I-3921) (antibody, mouse IgG3, V domains shown)
VH: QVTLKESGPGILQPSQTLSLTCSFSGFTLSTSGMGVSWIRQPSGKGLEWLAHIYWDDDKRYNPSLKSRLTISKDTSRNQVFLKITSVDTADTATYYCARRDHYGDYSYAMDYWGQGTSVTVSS
VL: DIVMTQSQKFMSTSEGDRVSITCKASQNVGIAVAWYQQKPGQSPKLLIYSASNRYTGVPDRFTGSGSGTDFTLTISNMQSEDLADYFCQQYSSNPTFGAGTKLELK
notes: also called 205H8 cl1A
B2: murine monoclonal antibody 203B6 (hybridoma CNCM I-3920) (antibody, mouse IgG1, V domains shown)
VH: EVKLVESGGGLVQPGGSLKLSCAASGFTFSTYTMSWVRQTPEKRLEWVAYISSGGGTTYYPDTVKGRFTISRDNARNTLYLQMNSLKSEDTAMYYCATPRIGTGFAYWGQGTLVTVSA
VL: DIVLSQSPASLALSLGQRATISCRASASVEYYGTSLMHWYQQKPGQPPKLLIYEASNVESGVPARFSGSGSGTDFSLNIHPVEEDDLAIYFCQQSRKAPYTFGGGTKLEIK
notes: also called 203B6 cl1A; [125I]-203B6
B3: murine monoclonal antibody 211F3 (hybridoma CNCM I-3918) (antibody, mouse IgG1, V domains shown)
VH: B2 VH with G10D, G56V, V64I, R76K, Y80F, A97T, T98S, I101T
VL: B2 VL with S5T, E30D, H38Q
notes: also called 211F3 cl1A
B4: murine monoclonal antibody 214B2 (hybridoma CNCM I-3919) (antibody, mouse IgG1, V domains shown)
VH: QVQLQQPGSVLVRPGASVKLSCKASGYTFTSSSMHWAKQRPGQGLEWIGEIHPNSGNTNNNEKFKGKATLTVDTSSSTAYVDLSSLSSEDSAVYYCARARSFYYAMDCWGQGTSVTVSS
VL: NIVMTQSPKSMSMSVGERVTLSCKASENVGTYVSWYQQKPEQSPKLLIYGASNRYTGVPDRFTGSGSATDFTLTISSVQAEDLADYHCGQTYSFPYTFGGGTKLEIK
notes: also called 214B2 cl1A; [125I]-214B2
B5: chimeric antibody c203B6[IgG1] (antibody, V domains shown)
VH: B2 VH
VL: DIVLSQSPASLALSLGQRATISCRASASVEYYGTSLMHWYQQKPGQPPKLLIYEASNVESGVPARFSGSGSGTDFSLNIHPVEEDDLAIYFCQQSRKAPYTFGGGTKLEIKR
notes: Variable domains of murine 203B6 fused to human Ckappa and human IgG1 constant domains; made in HEK293/EBNA cells; VL' and 'IgG1 Chim
B6: chimeric antibody c214B2[IgG1] (antibody, V domains shown)
VH: B4 VH
VL: NIVMTQSPKSMSMSVGERVTLSCKASENVGTYVSWYQQKPEQSPKLLIYGASNRYTGVPDRFTGSGSATDFTLTISSVQAEDLADYHCGQTYSFPYTFGGGTKLEIKR
notes: Variable domains of murine 214B2 fused to human Ckappa and human IgG1 constant domains; made in HEK293/EBNA cells; VL' and 'IgG1 Chim

Target: T1, human CD151 protein
Assay: flow cytometry, undiluted hybridoma supernatant on PC3 cells
Description: (§1) The flow cytometry analyses are carried out on 96-well plates. The undiluted hybridoma supernatants are added to 100000 PC3 cells previously introduced into the wells. After incubation for 20 minutes at +4° C. followed by washing, an Alexa488-labelled goat anti-mouse IgG polyclonal antibody (Molecular Probes, dilution to 1/500) is added. The fluorescence intensity (MFI) is determined with the aid of a cytofluorimeter after further incubation for 20 minutes at +4° C.

Row | Binder | MFI [MFI]
1 | B1 | 595
2 | B2 | 975
3 | B3 | 936
4 | B4 | 1000

Target: T2, recombinant extracellular loop EC2 of …
Assay: ELISA, clone supernatant at 5 µg/ml antibody on coated recombinant EC2 loop
Description: (§2) For the ELISA, 96-well plates are sensitised for 1 night at +4° C. with the recombinant extracellular loop EC2 at 5 μg/ml in PBS. After washing with PBS, the wells are saturated with 0.5% gelatin solution in PBS for 1 hour at 37° C. and then washed again with PBS. The hybridoma culture supernatants are evaluated without dilution (incubation for 1 hour at 37° C.). The antibodies fixed to the immobilised EC2 loop are detected by successive incubation with a peroxidase-conjugated goat anti-mouse IgG polyclonal antibody (Jackson/USA, dilution to 1/5000, 1 hour at 37° C.) and then with a peroxidase substrate (TMB, Interchim/France, 10 minutes at ambient temperature). The reaction is stopped by addition of 1M sulfuric acid and the optical density (OD) is measured at 450 nm.
The antibody concentration of the supernatants was adjusted to 5 μg/ml for the ELISA and to 10 μg/ml for the flow cytometry analyses.

Row | Binder | OD at 450 nm [OD at 450 nm]
5 | B1 | 1.84
6 | B2 | 2.22
7 | B3 | 2.3
8 | B4 | 2.48

Target: T1, human CD151 protein
Assay: flow cytometry, 10 µg/ml antibody on DU145 cells
Description: as §1
(§3) The isotypes of the antibodies produced were determined for each culture supernatant using a murine antibody isotyping kit (SBA clonotyping system, Southern Biotech), and then final characterisation was carried out by ELISA (extracellular loop EC2) and by flow cytometry on the murine line NIH 3T3 and the stable transfectant NIH 3T3-CD151, and then on human tumour lines of lung cancer A549, prostate cancer DU145 and pancreatic cancer BxPC3 under the conditions previously described. The antibody concentration of the supernatants was adjusted to 5 μg/ml for the ELISA and to 10 μg/ml for the flow cytometry analyses.

Row | Binder | MFI [MFI]
9 | B1 | 584
10 | B2 | 860
11 | B3 | 524
12 | B4 | 1330

Target: T2, recombinant extracellular loop EC2 of …
Assay: competition ELISA on coated recombinant EC2; competitor murine 203B6 at 80 ng/ml, detected with anti-mouse IgG
Description: (§4) Briefly, 96-well ELISA plates were coated with recombinant EC2 at 5 μg/ml in PBS overnight at 4° C. […] For control experiments, no murine antibody was added. Horseradish peroxidase-conjugated polyclonal goat anti-mouse IgG was added at a 1/5000 dilution in PBS and incubated for 1 h at 37° C. After incubation with the peroxidase substrate TMB for 10 min at room temperature, the reaction was stopped with 1 M sulfuric acid and the optical density at 450 nm was measured.

Row | Binder | IC50 [µg/mL]
13 | B5 | 0.71

Target: T1, human CD151 protein
Assay: saturation binding of 125I-labelled antibody to PC3 cells, 1 hour at 4°C, Scatchard analysis
Description: The affinity of the 2 radiolabelled antibodies for their CD151 target on the cell surface was then measured for PC3 prostate cancer cells. The dissociation constant KD of the antibodies was determined by the method of Scatchard. […] After incubation, the total radioactivity associated with the cells (fixed radiolabelled antibody) was measured using a gamma counter. The non-specific fixing was determined, for each concentration tested, in the presence of an excess of non-radiolabelled antibody (×100). The specific fixing is calculated by subtracting the non-specific radioactivity from the total radioactivity.

Row | Binder | Kd [nM]
14 | B2 | 12.8
15 | B4 | 6.38

Target: T2, recombinant extracellular loop EC2 of …
Assay: competition ELISA on coated recombinant EC2; competitor murine 214B2 at 80 ng/ml, detected with anti-mouse IgG
Description: as §4

Row | Binder | IC50 [µg/mL]
16 | B6 | 0.69

Target: T1, human CD151 protein
Assay: flow cytometry, 10 µg/ml antibody on BxPC3 cells
Description: as §1, §3

Row | Binder | MFI [MFI]
17 | B1 | 350
18 | B2 | 768
19 | B3 | 536
20 | B4 | 849

Target: T1, human CD151 protein
Assay: flow cytometry, 10 µg/ml antibody on A549 cells
Description: as §1, §3

Row | Binder | MFI [MFI]
21 | B1 | 388
22 | B2 | 675
23 | B3 | 481
24 | B4 | 820

Target: T2, recombinant extracellular loop EC2 of …
Assay: ELISA, undiluted hybridoma supernatant on coated recombinant EC2 loop (5 µg/ml)
Description: as §2

Row | Binder | OD 450 nm [OD 450 nm]
25 | B1 | 0.649
26 | B2 | 1.13
27 | B3 | 0.959
28 | B4 | 0.684

Target: T1, human CD151 protein
Assay: flow cytometry, 10 µg/ml antibody on NIH3T3-CD151 transfectant cells
Description: as §1, §3

Row | Binder | MFI [MFI]
29 | B1 | 332
30 | B2 | 540
31 | B3 | 556
32 | B4 | 748

Source: patent US20100150902A1 (published 2010)
